Laboratory results taken from patent US20180127504A1 (ACADEMIA SINICA, published 2018).

T1: VEGFR2(M1) (human, UniProt P35968 20-813)
T1 construct: Expressed on 293T cells; single substitutions derived from the printed replacement of the six-residue stretch; also called VEGFR2-M1 mutant protein
T1 chain: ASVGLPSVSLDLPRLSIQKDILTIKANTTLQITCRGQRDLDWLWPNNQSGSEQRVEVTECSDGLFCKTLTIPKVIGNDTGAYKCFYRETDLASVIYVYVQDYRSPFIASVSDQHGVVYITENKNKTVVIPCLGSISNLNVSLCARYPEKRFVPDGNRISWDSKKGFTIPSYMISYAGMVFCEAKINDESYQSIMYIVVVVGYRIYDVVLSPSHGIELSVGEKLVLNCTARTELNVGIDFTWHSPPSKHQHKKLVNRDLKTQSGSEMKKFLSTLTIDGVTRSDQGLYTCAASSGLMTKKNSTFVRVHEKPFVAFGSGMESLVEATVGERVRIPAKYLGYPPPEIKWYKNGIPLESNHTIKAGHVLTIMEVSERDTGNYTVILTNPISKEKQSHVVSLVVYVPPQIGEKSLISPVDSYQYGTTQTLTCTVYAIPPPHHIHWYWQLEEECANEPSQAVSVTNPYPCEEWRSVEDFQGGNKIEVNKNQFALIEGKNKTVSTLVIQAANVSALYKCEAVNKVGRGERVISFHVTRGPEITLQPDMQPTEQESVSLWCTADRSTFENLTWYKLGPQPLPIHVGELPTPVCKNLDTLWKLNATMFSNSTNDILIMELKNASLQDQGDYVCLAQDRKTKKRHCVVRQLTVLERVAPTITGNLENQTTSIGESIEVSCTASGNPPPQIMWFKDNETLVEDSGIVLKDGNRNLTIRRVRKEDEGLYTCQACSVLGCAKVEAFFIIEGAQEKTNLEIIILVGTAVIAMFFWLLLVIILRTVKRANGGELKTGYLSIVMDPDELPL

T2: VEGFR2(M2) (human, UniProt P35968 20-813)
T2 construct: Expressed on 293T cells; single substitutions derived from the printed replacement of the seven-residue stretch
T2 chain: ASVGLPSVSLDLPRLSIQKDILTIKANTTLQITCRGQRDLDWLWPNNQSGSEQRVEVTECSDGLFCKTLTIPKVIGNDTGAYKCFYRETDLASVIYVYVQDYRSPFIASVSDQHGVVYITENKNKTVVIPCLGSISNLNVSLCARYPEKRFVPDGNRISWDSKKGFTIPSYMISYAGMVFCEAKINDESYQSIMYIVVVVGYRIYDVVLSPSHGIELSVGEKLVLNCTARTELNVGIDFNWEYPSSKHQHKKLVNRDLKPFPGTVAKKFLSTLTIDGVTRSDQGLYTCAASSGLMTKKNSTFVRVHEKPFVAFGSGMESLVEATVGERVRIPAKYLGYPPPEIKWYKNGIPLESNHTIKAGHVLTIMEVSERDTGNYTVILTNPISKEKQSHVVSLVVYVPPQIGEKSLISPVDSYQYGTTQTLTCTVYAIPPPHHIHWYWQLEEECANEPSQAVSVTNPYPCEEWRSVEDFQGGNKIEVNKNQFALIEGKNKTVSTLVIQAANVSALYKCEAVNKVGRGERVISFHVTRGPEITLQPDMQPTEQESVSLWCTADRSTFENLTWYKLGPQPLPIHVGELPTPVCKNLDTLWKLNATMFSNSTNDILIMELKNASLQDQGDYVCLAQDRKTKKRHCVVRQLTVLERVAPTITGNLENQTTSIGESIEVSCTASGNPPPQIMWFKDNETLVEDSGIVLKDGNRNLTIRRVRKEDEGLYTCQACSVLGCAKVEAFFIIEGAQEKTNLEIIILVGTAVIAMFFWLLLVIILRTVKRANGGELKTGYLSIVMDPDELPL


Key:
VEGFR2(1-7) = target: T3, VEGFR2(1-7) (human, UniProt P35968 20-813); assay: immunofluorescent staining of transfected 293T cells
T3 construct: Expressed on 293T cells; also called full-length extracellular region of VEGFR2, domains 1-7, Met1 to Leu813

VEGFR2(2-7) = target: T4, VEGFR2(2-7) (human, UniProt P35968 111-813); assay: as above
T4 construct: also called domains 2-7, Ala111 to Leu813

VEGFR2(4-7) = target: T5, VEGFR2(4-7) (human, UniProt P35968 321-813); assay: as above
T5 construct: also called domains 4-7, Phe321 to Leu813

VEGFR2(del2-3) = target: T6, VEGFR2(del2-3) (human, UniProt P35968 20-813); assay: as above
T6 construct: Expressed on 293T cells; also called VEGFR2 with domains 2 and 3 deleted

VEGFR2(del3) = target: T7, VEGFR2(del3) (human, UniProt P35968 20-813); assay: as above
T7 construct: Expressed on 293T cells; also called VEGFR2 with domain 3 deleted

VEGFR2(M1) = target: T1, VEGFR2(M1); assay: as above
VEGFR2(M2) = target: T2, VEGFR2(M2); assay: as above
[1] = target: T8, VEGFR2 on tumor vascular endothelium (frozen sections of human lung cancer specimens) (human, UniProt P35968); assay: immunofluorescence on frozen sections of human lung cancer, scFv detected by anti-E tag and rhodamine secondary antibody, CD31 co-staining
T8 construct: endogenous, on CD31-positive tumor vascular endothelium in frozen tissue sections; also called human tumor vasculature

c-Met-Fc control protein = target: T9, c-Met-Fc control protein (UniProt P08581 25-932, limits assumed); assay: phage ELISA on coated MET-Fc, anti-M13-HRP detection
T9 construct: Bought control protein; also called Met-Fc (R&D); c-Met-Fe; not shown: Fc part of the bought fusion protein; not described
T9 sequence (P08581 25-932 limits assumed): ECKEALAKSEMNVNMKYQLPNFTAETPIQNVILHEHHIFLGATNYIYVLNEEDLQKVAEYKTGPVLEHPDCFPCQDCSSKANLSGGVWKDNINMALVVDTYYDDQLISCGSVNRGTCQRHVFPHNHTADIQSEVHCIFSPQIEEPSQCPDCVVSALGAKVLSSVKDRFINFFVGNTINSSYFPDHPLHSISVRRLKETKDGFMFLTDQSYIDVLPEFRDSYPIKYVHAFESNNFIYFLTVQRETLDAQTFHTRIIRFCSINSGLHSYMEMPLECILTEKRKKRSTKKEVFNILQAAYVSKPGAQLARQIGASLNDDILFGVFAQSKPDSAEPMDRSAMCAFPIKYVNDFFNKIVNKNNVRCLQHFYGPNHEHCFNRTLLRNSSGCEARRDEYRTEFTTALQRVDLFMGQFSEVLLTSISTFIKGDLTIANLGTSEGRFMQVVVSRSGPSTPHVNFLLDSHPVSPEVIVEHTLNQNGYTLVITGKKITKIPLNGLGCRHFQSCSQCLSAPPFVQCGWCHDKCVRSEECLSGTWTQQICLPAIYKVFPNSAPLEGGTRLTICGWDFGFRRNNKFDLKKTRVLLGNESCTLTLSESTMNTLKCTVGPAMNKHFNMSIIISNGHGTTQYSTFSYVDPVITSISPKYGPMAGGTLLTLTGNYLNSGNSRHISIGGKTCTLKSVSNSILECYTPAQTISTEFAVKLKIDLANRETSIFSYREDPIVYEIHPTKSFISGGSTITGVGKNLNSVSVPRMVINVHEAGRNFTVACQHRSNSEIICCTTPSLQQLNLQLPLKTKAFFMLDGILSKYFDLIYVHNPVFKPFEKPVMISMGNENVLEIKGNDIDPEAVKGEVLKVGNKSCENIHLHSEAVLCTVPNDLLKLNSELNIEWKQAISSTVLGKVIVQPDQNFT
Description: The selected phages were further examined by ELISA screening. The 96-well plates were coated with […] of VEGFR2-Fc, Met-Fc (R&D), or BSA (Sigma) protein in 0.1 M sodium bicarbonate overnight at 4° C. After blocking with 1% BSA in PBS (w/v) for 2 hr at room temperature, 70-randomly selected phage clones were added to the plates at a 1:2 dilution in 1% BSA, and incubated for 1 hr at room temperature. Following washes with PBST, the plates were incubated with a 1:2000 dilution of horseradish peroxidase (HRP)-conjugated mouse anti-M13 phage antibody (GE) for 1 hr. After washing with PBST, the colorimetric reaction was developed with the peroxidase substrate ortho-phenylenediamine (OPD; Sigma) plus H₂O₂ for 15 min, and then terminated by the addition of 3 N HCl. The absorbance at 490 nm was determined using a microplate reader (SpectraMax, Molecular Devices). Plasmid DNA of positive clones were isolated and sequenced using the pCANTAB5 sequencing primer set.
(§1) After four rounds of affinity selection (biopanning), the titer of bound phage increased by as much as 3,455-fold (FIG. 1A).

[2] = target: T10, VEGFR2 on the cell surface of human umbilical vein endothelial cells (HUVEC) (human, UniProt P35968 20-1356); assay: flow cytometry on HUVECs, 1x10^10 cfu phage, anti-M13 and PE-labelled secondary antibody
T10 construct: Endogenous receptor of human cells; also called cell-surface VEGFR2; cellular VEGFR2
Description: About 1×10⁴ HUVEC were incubated with the selected anti-VEGFR2 phage clones at 4° C. for 1 hour in FACS buffer (PBS containing 1% fetal bovine serum). After the cells were washed with FACS buffer, they were first incubated with mouse anti-M13 phage Ab for 1 hr at 4° C., and then with R-phycoerythrin-conjugated goat anti-mouse IgG (Jackson Immuno Research) for 30 min at 4° C. Flow cytometry was performed with a FACSCantoII (BD), and emission fluorescence intensity was measured with FACS Diva software (BD) to quantitatively compare binding affinities.
as §1

Binder	binding result (VEGFR2(1-7))	binding result (VEGFR2(2-7))	binding result (VEGFR2(4-7))	binding result (VEGFR2(del2-3))	binding result (VEGFR2(del3))	binding result (VEGFR2(M1))	binding result (VEGFR2(M2))	binding result [1]	binding result (c-Met-Fc control protein)	binding result [2]
R2S12 (scFv, V domains shown, Soluble scFv made in E. coli HB2151 from phage clone R2PC12, with E tag; also called soluble anti-VEGFR2 scFv from phage clone R2PC12) VH: QVNLRESGGGLVKPGGSLRLSCAASGFTFGSYTMNWVRQAPGKGLEWVASITSGSSYIFYTDSVKGRFTISRDNSRSSLFLQMNSLRAEDTAIYYCARGSASAFDIWGQGTMVTVSS VL: DIQMTQSPSSLSASVGDRVTITCKASDDIINYLNWYQQKPGEAPKLLIYDASILETGVPSRFSGSGSGTDFTFTISSLQPEDIATYYCQQYDILPLTFGGGTKLEIK	binds	binds	no binding	no binding	no binding	no binding	binds	binds		
R2PC12 (scFv, V domains shown, also called anti-VEGFR2 scFv phage clone 12) VH: QVNLRESGGGLVKPGGSLRLSCAASGFTFGSYTMNWVRQAPGKGLEWVASITSGSSYIFYTDSVKGRFTISRDNSRSSLFLQMNSLRAEDTAIYYCARGSASAFDIWGQGTMVTVSS VL: DIQMTQSPSSLSASVGDRVTITCKASDDIINYLNWYQQKPGEAPKLLIYDASILETGVPSRFSGSGSGTDFTFTISSLQPEDIATYYCQQYDILPLTFGGGTKLEIK									no binding (tested: 1x10^9 cfu)	binds
R2S8 (scFv, V domains shown, also called soluble anti-VEGFR2 scFv from phage clone R2PC8) VH: QVQLVQSGGGLVKPGGSLRLSCAASGFTFSSYSMSWVRQAPGKGLEWVSSISSSSSYIYYADSVKGRFTISRDNAKNSLYLQMNSLRAEDTAVYYCARSTDAFDIWGQGTMVTVSS VL: DIVMTQSPSSLSASVGDRVTITCRASQRISNYLNWYQHKSGEDPKLLIYAASSLQSGVPSRFSGSGSGTDFTLTISSLQPEDFATYYCQQYDRYPPTFGQGTKLEIK	binds	binds	no binding	no binding	no binding	no binding	binds	binds		
R2PC8 (scFv, V domains shown, also called anti-VEGFR2 scFv phage clone 8) VH: QVQLVQSGGGLVKPGGSLRLSCAASGFTFSSYSMSWVRQAPGKGLEWVSSISSSSSYIYYADSVKGRFTISRDNAKNSLYLQMNSLRAEDTAVYYCARSTDAFDIWGQGTMVTVSS VL: DIVMTQSPSSLSASVGDRVTITCRASQRISNYLNWYQHKSGEDPKLLIYAASSLQSGVPSRFSGSGSGTDFTLTISSLQPEDFATYYCQQYDRYPPTFGQGTKLEIK									no binding (tested: 1x10^9 cfu)	binds
R2S28 (scFv, V domains shown, also called soluble anti-VEGFR2 scFv from phage clone R2PC28) VH: EVQLVESGGALVQPGGSLRLSCVGSEFTFSHYNLHWVRQAPGKGLEWLAVISDDGRNKYYGDSVKGRFTISRDNSKNTLYLQMNGLRAEDTAVYYCARVPTVWRGGVYDIWGQGTMVTVSS VL: EIVLTQSPATLSLSPGERATLSCRASQSVGSYLAWYQQRPGQPPRLLIYDASNRATGVAARFSGSGSGTDFTLTIDSLEAEDAATYYCHQSSSLPRTFGQGTKLEIK	binds	no binding	no binding	binds	binds	binds	binds	binds		
R2PC28 (scFv, V domains shown, also called anti-VEGFR2 scFv phage clone 28) VH: EVQLVESGGALVQPGGSLRLSCVGSEFTFSHYNLHWVRQAPGKGLEWLAVISDDGRNKYYGDSVKGRFTISRDNSKNTLYLQMNGLRAEDTAVYYCARVPTVWRGGVYDIWGQGTMVTVSS VL: EIVLTQSPATLSLSPGERATLSCRASQSVGSYLAWYQQRPGQPPRLLIYDASNRATGVAARFSGSGSGTDFTLTIDSLEAEDAATYYCHQSSSLPRTFGQGTKLEIK									no binding (tested: 1x10^9 cfu)	binds
R2S29 (scFv, V domains shown, also called soluble anti-VEGFR2 scFv from phage clone R2PC29) VH: QVQLQQSGAEMKKSGSSVKVSCKASGGNFISKGISWVRQAPGQGLEWMGGIIPLFGTGNYAQKFQGRVTITADESTTTVYLQLTSLTPEDTAMYFCATADVDYSDSLEAFDMWGQGTMVTVSS VL: DIVMTQSPSSLSASVGDRVTITCRASQSINNYLNWYQQKPGKAPNLLIYGASSLQSGVPSRFRGSGSGTDFTLTISSLQPEDFATYYCQQSYSTPLFGQGTKLEIK								binds		
R2PC29 (scFv, V domains shown, also called anti-VEGFR2 scFv phage clone 29) VH: QVQLQQSGAEMKKSGSSVKVSCKASGGNFISKGISWVRQAPGQGLEWMGGIIPLFGTGNYAQKFQGRVTITADESTTTVYLQLTSLTPEDTAMYFCATADVDYSDSLEAFDMWGQGTMVTVSS VL: DIVMTQSPSSLSASVGDRVTITCRASQSINNYLNWYQQKPGKAPNLLIYGASSLQSGVPSRFRGSGSGTDFTLTISSLQPEDFATYYCQQSYSTPLFGQGTKLEIK									no binding (tested: 1x10^9 cfu)	binds
